Reference: the nanobody polyreactivity screen of Harvey et al. (2022)

Assay: yeast display, Sf9 membrane polyspecificity reagent, FACS + sequencing; frameworks hold sequencing errors
Procedure, shortened: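 Genes from sorted yeast were amplified by colony PCR, read by MiSeq 2 × 250 sequencing and filtered on CDR length. These cells carried a synthetic nanobody library in Saccharomyces cerevisiae BJ5465 and were sorted by FACS into low and high (top ~1%) gates on anti-HA and streptavidin fluorescence. Polyreactivity is labelled according to the gate of origin.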

Sequence	polyreactivity (PSR sort gate)
QVQLVESGGGLVQAGGSLRLSCAASGFIFRYYAMGWYRQAPGKERELVAAISYSGGYTYYADSVKGRFTISRDNAKNTVYLQMNSLKPEDTAVYYCAAVLRTRDHPQPNYEYWGQGTQVTVSS	high polyreactivity
QVQLVESGGGLVQAGGSLRLSCAASGSTFPSYAMGWYRPAPGKERELVAAINSGGGTNYADSVKGRFTISRDNAKNTVYLQMNSLKPEDTAVYYCAKSRYDYTKTEGGYWGQGTQVTVSS	low polyreactivity
QVQLVESGGGLVQAGGSLRLSCAASGSIFGFYAMGWYRQAPGKERELVAAISDSGDSTYYADSVKGRFTISRDNAKNTVYLQMNSLKPEDTAVYYCATDGRSNYYWGDYWGQGTQVTVSS	low polyreactivity
QVQLVESGGGLVQAGGSLRLSCAASGRTFSVYSMGWYRQAPGKERDLVAGITGNGGSTYYADSVKGSFTISRDNAKNTVYLQMNSLKPEDTAVYYCATAYWVIITRGEYGYCGQGTQVTVSS	low polyreactivity
QVQLVESGGGLVQAGGSLRLSCAASGSIFSYYAMGWYRQAPGKEREFVAAITKSGGSTYYADSVKGRFTISRDNAKNTVYLQMNSLKPEDTAVYYCAADEGGFWWTYPYDSWGQGTQVTVSS	low polyreactivity
QVQLVESGGGLGQAGASLRLSSAATGFTFRPNAMGWYRQAPGKERELVAAISWRGTRTSYADSVKGRFTISRDNAKNTVYLQMNSLKPEDTAVYSCAARLVRRYDYDYWGQGTQVTVSS	high polyreactivity
QVQLVESGGGLVQAGGSLRLSCAASGRIFTGNVMGWYRQAPGKERELVAAISVSGGRTYYADSVKGRFTISRDNAKNNVYLQMNSLKPEDTAVYYCNARFSRVWYGGDYWGQGTQVTVSS	high polyreactivity
QDQLVESGGGLVQAGGSLLLSCAASGSTFYDYVMGWYRQAPGKERELVADISSGGGTNYADSLKGRFTISRDNAKNTVYLQMNSLKPEDTAVYYCAAYRYFFWYEFVSWGQGTQVTVSS	high polyreactivity
QVQLVESGGGLVQAGGSLRLSCAASGRTFWNYAMGWYRQAPGKERELVAAIRSSGGRTYYADSVKGRFTISRDNAKNTVYLQMNSLKPEDTAVYYCAAYGFIEGIGTYDYWGQGTQVTVSS	high polyreactivity
QVHLVESGGGLVQAAGSLRLSCAASGRTFPYNAKGWYRQAPGKERELVAAISSGGSTNYADSVKGRFTISRDNAKNTVYLQMNSLKPEDTAVYYCATKYQRRPYRYYYWGQGTQVTVSS	low polyreactivity
QVQLVDSGGGLVQAGGSLRLSCDASGFIFERYAMGWYRQAPGKERELVAGIYSGGSTYYADSVKGRFTISRDNAKNTVYLQMNSLKPEDTAVYYCAPYRRQHIIYNYWGQGTQVTVSS	high polyreactivity
QVQLVESGGGLVQAGGSLRLSCAASGRIFSINAMGWYRQAPGKERELVASISSGGSTKYADSVKGRFTISRDNAKNTVYLQMNSLKPEDTAVYYCAARGRVYRYGYWGQGTQVTVSS	high polyreactivity
QVQLVESGGGLVQAGGSLRLSCAASGSISYKYVMGWYRQAPGKEREFVASITRIGGSTYYADSVKGRFTISRDNAKNTVYLQMNSLKPEDTAVYYCARDYDYWSWPSAYDYWGQGTQVTVSS	low polyreactivity
QVQLVESGGGLVQAGGSLRLSCAASGSIFRSYAMGWYRQAPGKERELVAAISWRGGRTYYADSVKGRFTISRDNAKNTVYLQMNSLKPEDTAVYYCAVDFYVYRWSPYGDVYRYDYWGQGTQVTVSS	high polyreactivity
QVQLVESGGGLVQAGGSLRLSCAASGSTFYGYAMGWSRQAPGKERELDAVINYRGDRTYYADSVKGRFTISRDNAKNTVYLQMNSLKPEDTAVYYCAARYRVYYLPGYEYWGQGTQVTVSS	high polyreactivity
QVQLVESGGGLVQAGGSLRLSCAASGFTFYRYAMGWYRQAPGKERELVAAITSRSGITYYADSVKGRFTISRDNAKNTVYLQMNSLKPEDTAVYYCGAYVSRSTEFDYGYWGQGTQVTVSS	high polyreactivity

Sequence	polyreactivity (PSR sort gate)
QVQLVESGGGLVQAGGSLRLSCAASGRTFTGNAMGWYRQAPGKERELVAAISQRGGRTNYADSVKGRFTISRDNAKNTVYLQMHSLKPEDTAVYYCAADQSYPKRLPSFEYWGQGTQVTVSS	low polyreactivity
QVQLVESGGGLVQAGGSLRLSCAASGLTFQNNAMGWYRQAPGKERELVAVITRIGGSTYYADSVKGRFTISRDNAKNTVYLQMNSLKPEDTAVYYCAAGYRTRRRLHDYWGQGTQVTVSS	high polyreactivity
QVQLVESGVGLVQAGGSLRLSCAASGSTFFIYPMGLYRQAPGKERELVAAIRSGGTYYADSVKGRFTISRDNAKNTVYLQMNSLNPEDTAVYYCAARTRGFRYYYWGQGSQVTVSS	high polyreactivity
QVQLVESGGCIDQAGGSLRLSCAASGSNFRGYAKGWYRQAPGKERELVAAITWSGGSTYYADSVKGRFTISRDKAKNTVSLQMNSLKPEDTAVYYCAAEYWDSDTYDYCGQGTQVTVSS	low polyreactivity
QVQLVESGGGLVQAGGSLRLTCAASGFTFGRYTMGWYRQAPGKERELVAAISGRGSRTYYADSVKGRFTISRDNAKNTVYLQMSSLKPVDTAVYYCAADVNVRSDMDYWGQGTQVTVSS	high polyreactivity
QVQLVESGGGLVQAGGSLRLSCAASGSISYFYAMGWYRQAPGKERELVADINSGDDTYADSVKGRFTISRDNAKNTVYLQMNSLKPEDTAVYYCSVKYGGYESHYYRRPHYDYWGQGTQVTVSS	low polyreactivity
QVQLVVSGGRLVQGAGSHRLSSAASGSIFPKYAMGWYRQAPGKERDLVATISYRGGRTYYADSVKGRFTISRDNAKNTVNLQMNCLKPEDTAVYYCNAHSQAKLDYWGQGSQVTVSS	low polyreactivity
QVQLVESGGGLVQAGGSLRLSCAASGSTFTVNAMGWYRQAPGKERELVAVIRKSGTSTYYADSVKGRFTISRDNAKNTVYFQMNSLKPEDTAVYYCAGGGPSTLDDYWGQGTQVTVSS	low polyreactivity
QVQLVESGGGLVQAGGSLRLSCAASGYIFDHYAMGWYRQAPGKEREFVAAISRSAGSTYYADSVKGRFTISRDNAQNTVYLQMNSLKPEDTAVYYCNAVVAVRSWRKYEYWGQGTQVTVSS	high polyreactivity
QVQLVESGGGLVQAGGSLRLSCAASGSTFYSYAMGWYRQAPGKERELVAAISWDGGLTYYADSVKGRFTISRDTAKNTVYLQMNSLKPEDTAVYYCAAAYPTYRHYYWGQGTQVTVSS	low polyreactivity
QVQLVESGGGLVQAGGSLRLSCAASGFTFYSYAMGWYRQAPGKERELVAAISWSGTRTYYADSVKGRFTISRDNGKNTVYLQMTSLKPEVTAVYYCAGRGYRYGYGYWGQGTQVTVSS	high polyreactivity
QVQLVESGGGLVQAGGSLRLSCAASGLIFVWYAMGWYRQAPGKERELVAAISWRGGTTYYADSVKGRFTISRDNAKNTVYLQMNSLKPEDTAVYYCNAVGSQVDYLRYVWYDMDYWGQGTQVTVSS	low polyreactivity
QVQLVESGGGLVQAGGSLRLSCAASGSIFKWNAMGWYRQAPGKEWELVAAITWSGGRTYYADSVKGRFTISRDNAKNTVYLQMNSLKPEDTAVYYCAATQYRSDGWRYDYWGQGTQVTVSS	high polyreactivity
QVQLVESGGGLDQAGGSLRLSCAASGTTFVPNDMGWYRQAPGKERELVAAITDSGGSTYYADSVWGRFTISRDNAKNTVYLQMNILKPEDTAVYYCADVQHYVTHMDYWGQGNQVTVSS	low polyreactivity
QVQLVESGGGLVQAGGSLRLSCAASGFTFIRYAMGWDRQAPGKERELVAAISVSGGRTYYADSVKGRFTISRDNAKNTVYLQMNSLKPEDTAVYYCARRPSYYQGDYWGQGTQVTVSS	high polyreactivity
QVQLVESGGGLVQAGGSLRLSCAASGRIFSHNVMGWYRQAPGKERELVAAISWSSGSTYYADSVKGRFTISRDNAKNTVYLQMNSLKPEDTAVYYCNAATRPTGDYWGQGTQVTVSS	low polyreactivity
